Patent US20250163162A1
Blank lines part the entries; values can stand above or below the binder they belong to.

Biological target: T1, IL10Rα/IL2Rγ receptor (human) (UniProt Q13651)
T1 sequence (looked up) 1: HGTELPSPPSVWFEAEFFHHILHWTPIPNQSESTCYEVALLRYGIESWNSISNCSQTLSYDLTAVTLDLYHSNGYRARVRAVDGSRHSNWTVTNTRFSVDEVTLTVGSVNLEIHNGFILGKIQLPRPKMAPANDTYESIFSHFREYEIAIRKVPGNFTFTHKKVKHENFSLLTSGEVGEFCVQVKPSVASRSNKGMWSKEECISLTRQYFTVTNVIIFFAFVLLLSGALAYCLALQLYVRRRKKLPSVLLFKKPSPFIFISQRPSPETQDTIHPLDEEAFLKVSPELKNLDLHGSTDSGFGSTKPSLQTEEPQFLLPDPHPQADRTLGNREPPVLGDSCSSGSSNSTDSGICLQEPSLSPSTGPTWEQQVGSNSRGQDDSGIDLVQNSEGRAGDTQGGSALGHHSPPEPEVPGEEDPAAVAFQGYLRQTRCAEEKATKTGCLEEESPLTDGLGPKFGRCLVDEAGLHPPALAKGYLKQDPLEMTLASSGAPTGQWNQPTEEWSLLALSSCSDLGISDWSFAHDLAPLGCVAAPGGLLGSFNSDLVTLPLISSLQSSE
T1 sequence (looked up) 2: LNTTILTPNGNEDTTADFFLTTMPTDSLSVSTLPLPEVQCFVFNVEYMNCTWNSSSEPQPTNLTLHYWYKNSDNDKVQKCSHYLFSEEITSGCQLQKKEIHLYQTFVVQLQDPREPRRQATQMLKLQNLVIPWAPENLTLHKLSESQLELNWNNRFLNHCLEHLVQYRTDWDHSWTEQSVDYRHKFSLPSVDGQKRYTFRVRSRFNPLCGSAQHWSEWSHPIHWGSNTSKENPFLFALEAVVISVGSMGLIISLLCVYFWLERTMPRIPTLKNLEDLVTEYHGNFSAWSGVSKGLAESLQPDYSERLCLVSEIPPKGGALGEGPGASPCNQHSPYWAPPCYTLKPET
Assay: cell-based or functional assay

Granzyme A secretion, CD8 T cells, at 0 µM: 25200 pg/mL
Granzyme A secretion, CD8 T cells, at 0.0001 µM: 19700 pg/mL
Granzyme A secretion, CD8 T cells, at 0.001 µM: 22300 pg/mL
Granzyme A secretion, CD8 T cells, at 0.01 µM: 22200 pg/mL
Granzyme A secretion, CD8 T cells, at 0.1 µM: 22900 pg/mL
Granzyme A secretion, CD8 T cells, at 1 µM: 24400 pg/mL
Granzyme A secretion, CD8 T cells, at 10 µM: 26000 pg/mL
Granzyme A secretion, CD8 T cells, at 100 µM: 27500 pg/mL
Granzyme B secretion, CD8 T cells, at 0 µM: 77700 pg/mL
Granzyme B secretion, CD8 T cells, at 0.0001 µM: 49300 pg/mL
Granzyme B secretion, CD8 T cells, at 0.001 µM: 47300 pg/mL
Granzyme B secretion, CD8 T cells, at 0.01 µM: 44200 pg/mL
Granzyme B secretion, CD8 T cells, at 0.1 µM: 54800 pg/mL
Granzyme B secretion, CD8 T cells, at 1 µM: 56300 pg/mL
Granzyme B secretion, CD8 T cells, at 10 µM: 67100 pg/mL
Granzyme B secretion, CD8 T cells, at 100 µM: 74300 pg/mL
IFNγ secretion, CD8 T cells, at 0 µM: 122000 pg/mL
IFNγ secretion, CD8 T cells, at 0.0001 µM: 102000 pg/mL
IFNγ secretion, CD8 T cells, at 0.001 µM: 104000 pg/mL
IFNγ secretion, CD8 T cells, at 0.01 µM: 111000 pg/mL
IFNγ secretion, CD8 T cells, at 0.1 µM: 111000 pg/mL
IFNγ secretion, CD8 T cells, at 1 µM: 123000 pg/mL
IFNγ secretion, CD8 T cells, at 10 µM: 131000 pg/mL
IFNγ secretion, CD8 T cells, at 100 µM: 134000 pg/mL
IL-1β secretion, LPS treated monocytes, at 0 µM: 6240 pg/mL
IL-1β secretion, LPS treated monocytes, at 0 µM (LPS only): 6880 pg/mL
IL-1β secretion, LPS treated monocytes, at 0.0001 µM: 5540 pg/mL
IL-1β secretion, LPS treated monocytes, at 0.001 µM: 5550 pg/mL
IL-1β secretion, LPS treated monocytes, at 0.01 µM: 5370 pg/mL
IL-1β secretion, LPS treated monocytes, at 0.1 µM: 5290 pg/mL
IL-1β secretion, LPS treated monocytes, at 1 µM: 5800 pg/mL
IL-1β secretion, LPS treated monocytes, at 10 µM: 5790 pg/mL
IL-1β secretion, LPS treated monocytes, at 100 µM: 7100 pg/mL
IL-9 secretion, CD8 T cells, at 0 µM: 1350 pg/mL
IL-9 secretion, CD8 T cells, at 0.0001 µM: 933 pg/mL
IL-9 secretion, CD8 T cells, at 0.001 µM: 1120 pg/mL
IL-9 secretion, CD8 T cells, at 0.01 µM: 1140 pg/mL
IL-9 secretion, CD8 T cells, at 0.1 µM: 1070 pg/mL
IL-9 secretion, CD8 T cells, at 1 µM: 1220 pg/mL
IL-9 secretion, CD8 T cells, at 10 µM: 1440 pg/mL
IL-9 secretion, CD8 T cells, at 100 µM: 1670 pg/mL
B1: hIL10Ra_VHH14 - hIL2Rg_VHH19, No linker, tag his (bispecific antibody, not shown: small tags and cut ends)
chain: QVQLQESGGGSVQAGGSLRLSCGASGYTYSSYCMGWFRQVPGKEREGVAVIDSDGSTSYADSVKGRFTISKDNGKNTLYLQMNSLKPEDTAMYYCAADLGHYRPPCGVLYLGMDYWGKGTQVTVSSQVQLQESGGGSVQAGGSLRLSCTASGFTFDDREMNWYRQAPGNECELVSTISSDGSTYYADSVKGRFTISQDNAKNTVYLQMDSVKPEDTAVYYCAADFMIAIQAPGAGCWGQGTQVTVSS

Granzyme A secretion, CD8 T cells, at 0 µM: 25200 pg/mL
Granzyme A secretion, CD8 T cells, at 0.0001 µM: 19900 pg/mL
Granzyme A secretion, CD8 T cells, at 0.001 µM: 22700 pg/mL
Granzyme A secretion, CD8 T cells, at 0.01 µM: 25900 pg/mL
Granzyme A secretion, CD8 T cells, at 0.1 µM: 26100 pg/mL
Granzyme A secretion, CD8 T cells, at 1 µM: 27900 pg/mL
Granzyme A secretion, CD8 T cells, at 10 µM: 28600 pg/mL
Granzyme A secretion, CD8 T cells, at 100 µM: 28400 pg/mL
Granzyme B secretion, CD8 T cells, at 0 µM: 77700 pg/mL
Granzyme B secretion, CD8 T cells, at 0.0001 µM: 49200 pg/mL
Granzyme B secretion, CD8 T cells, at 0.001 µM: 49400 pg/mL
Granzyme B secretion, CD8 T cells, at 0.01 µM: 55500 pg/mL
Granzyme B secretion, CD8 T cells, at 0.1 µM: 58000 pg/mL
Granzyme B secretion, CD8 T cells, at 1 µM: 80200 pg/mL
Granzyme B secretion, CD8 T cells, at 10 µM: 87000 pg/mL
Granzyme B secretion, CD8 T cells, at 100 µM: 99900 pg/mL
IFNγ secretion, CD8 T cells, at 0 µM: 122000 pg/mL
IFNγ secretion, CD8 T cells, at 0.0001 µM: 91700 pg/mL
IFNγ secretion, CD8 T cells, at 0.001 µM: 105000 pg/mL
IFNγ secretion, CD8 T cells, at 0.01 µM: 122000 pg/mL
IFNγ secretion, CD8 T cells, at 0.1 µM: 129000 pg/mL
IFNγ secretion, CD8 T cells, at 1 µM: 134000 pg/mL
IFNγ secretion, CD8 T cells, at 10 µM: 143000 pg/mL
IFNγ secretion, CD8 T cells, at 100 µM: 143000 pg/mL
IL-1β secretion, LPS treated monocytes, at 0 µM: 6240 pg/mL
IL-1β secretion, LPS treated monocytes, at 0 µM (LPS only): 6880 pg/mL
IL-1β secretion, LPS treated monocytes, at 0.0001 µM: 5960 pg/mL
IL-1β secretion, LPS treated monocytes, at 0.001 µM: 6270 pg/mL
IL-1β secretion, LPS treated monocytes, at 0.01 µM: 5060 pg/mL
IL-1β secretion, LPS treated monocytes, at 0.1 µM: 6590 pg/mL
IL-1β secretion, LPS treated monocytes, at 1 µM: 5760 pg/mL
IL-1β secretion, LPS treated monocytes, at 10 µM: 6710 pg/mL
IL-1β secretion, LPS treated monocytes, at 100 µM: 8140 pg/mL
IL-9 secretion, CD8 T cells, at 0 µM: 1350 pg/mL
IL-9 secretion, CD8 T cells, at 0.0001 µM: 918 pg/mL
IL-9 secretion, CD8 T cells, at 0.001 µM: 998 pg/mL
IL-9 secretion, CD8 T cells, at 0.01 µM: 1070 pg/mL
IL-9 secretion, CD8 T cells, at 0.1 µM: 1230 pg/mL
IL-9 secretion, CD8 T cells, at 1 µM: 1610 pg/mL
IL-9 secretion, CD8 T cells, at 10 µM: 1730 pg/mL
IL-9 secretion, CD8 T cells, at 100 µM: 1880 pg/mL
B2: hIL10Ra_VHH14 - hIL2Rg_VHH19, linker GS, tag his (bispecific antibody, not shown: small tags and cut ends)
chain: QVQLQESGGGSVQAGGSLRLSCGASGYTYSSYCMGWFRQVPGKEREGVAVIDSDGSTSYADSVKGRFTISKDNGKNTLYLQMNSLKPEDTAMYYCAADLGHYRPPCGVLYLGMDYWGKGTQVTVSSGSQVQLQESGGGSVQAGGSLRLSCTASGFTFDDREMNWYRQAPGNECELVSTISSDGSTYYADSVKGRFTISQDNAKNTVYLQMDSVKPEDTAVYYCAADFMIAIQAPGAGCWGQGTQVTVSS
